Data as given in FireProtDB (doi:10.1074/jbc.272.30.18686).

B1: Ribonuclease HI, P0A7Y4 (parent)
chain: MLKQVEIFTDGSCLGNPGPGGYGAILRYRGREKTFSAGYTRTTNNRMELMAAIVALEALKEHCEVILSTDSQYVRQGITQWIHNWKKRGWKTADKKPVKNVDLWQRLDAALGQHQIKWEWVKGHAGHPENERCDELARAAAMNPTLEDTGYQVEV

Variants of: B1
Conditions: Escherichia coli (strain K12), pH 3.2, Thermal, CD, glycine-HCl 10 mM, reversible: yes, structure 2RN2, whole UniProt chain shown; for ddG of mutation (higher = less stable): 53 °C

Variant	Tm [°C]	change of melting temperature, mutant - wild type (higher = more stable) [°C]	unfolding enthalpy (van 't Hoff) [kcal/mol]	ddG of mutation (higher = less stable) [kcal/mol]
MLKQVEIFTDGSCLGNPGPGGYGAILRYRGREKTFSAGYTRTTNNRMELMAFIVALEALKEHCEVILSTDSQYARQGITQWIHNWKKRGWKTADKKPVKNVDLWQRLDAALGQHQIKWEWVKGHAGHPENERCDELARAAAMNPTLEDTGYQVEV [A52F V74A]	48.4	-4.6	85.8	–
MLKQVEIFTDGSCLGNPGPGGYGAILRYRGREKTFSAGYTRTTNNRMELMAVIVALEALKEHCEVILSTDSQYLRQGITQWIHNWKKRGWKTADKKPVKNVDLWQRLDAALGQHQIKWEWVKGHAGHPENERCDELARAAAMNPTLEDTGYQVEV [A52V V74L]	61	8.07	126	-2.43
MLKQVEIFTDGSCLGNPGPGGYGAILRYRGREKTFSAGYTRTTNNRMELMAHIVALEALKEHCEVILSTDSQYVRQGITQWIHNWKKRGWKTADKKPVKNVDLWQRLDAALGQHQIKWEWVKGHAGHPENERCDELARAAAMNPTLEDTGYQVEV [A52H]	41.2	-11.8	84.7	–
MLKQVEIFTDGSCLGNPGPGGYGAILRYRGREKTFSAGYTRTTNNRMELMAGIVALEALKEHCEVILSTDSQYVRQGITQWIHNWKKRGWKTADKKPVKNVDLWQRLDAALGQHQIKWEWVKGHAGHPENERCDELARAAAMNPTLEDTGYQVEV [A52G]	44.1	-8.9	91	–
MLKQVEIFTDGSCLGNPGPGGYGAILRYRGREKTFSAGYTRTTNNRMELMAFIVALEALKEHCEVILSTDSQYVRQGITQWIHNWKKRGWKTADKKPVKNVDLWQRLDAALGQHQIKWEWVKGHAGHPENERCDELARAAAMNPTLEDTGYQVEV [A52F]	51.5	-1.5	89	–
MLKQVEIFTDGSCLGNPGPGGYGAILRYRGREKTFSAGYTRTTNNRMELMAYIVALEALKEHCEVILSTDSQYVRQGITQWIHNWKKRGWKTADKKPVKNVDLWQRLDAALGQHQIKWEWVKGHAGHPENERCDELARAAAMNPTLEDTGYQVEV [A52Y]	45.4	-7.6	70.8	2.3
